Assay [1] concerns the target human FcRn (human FCGRT & B2M heterodimer) (human) (UniProt P55899). Nature of the assay: BLI; as a4 (FcRn on AR2G tips, pH 6), but fitted with a 1:1 binding model; not corrected for the molecular weight of the aggregates; apparent.
Assay [2] has the same target. Briefly: BLI; Octet Red384; FcRn amine-coupled to AR2G tips; 320 nM IgG1 associated at pH 6 and dissociated at pH 7.2; fraction bound 5 s after the start of dissociation (response at 0 s = 100%). (Biolayer interferometry detects binding as a change in optical thickness at a sensor tip.)
The target in assay [3] is human FcγRI with a C-terminal AVI-tag and C-terminal His-tag (Sino Biological) (human) (UniProt P12314). Briefly: SPR; Biacore T200, single-cycle kinetics; biotinylated FcγRI captured on a CAPchip, IgG1 injected at 0.06-5 nM; HBS-EP+; 37 °C; 1:1 kinetic model; KD observed.
Sequence of UniProt P12314 (P12314 16-292): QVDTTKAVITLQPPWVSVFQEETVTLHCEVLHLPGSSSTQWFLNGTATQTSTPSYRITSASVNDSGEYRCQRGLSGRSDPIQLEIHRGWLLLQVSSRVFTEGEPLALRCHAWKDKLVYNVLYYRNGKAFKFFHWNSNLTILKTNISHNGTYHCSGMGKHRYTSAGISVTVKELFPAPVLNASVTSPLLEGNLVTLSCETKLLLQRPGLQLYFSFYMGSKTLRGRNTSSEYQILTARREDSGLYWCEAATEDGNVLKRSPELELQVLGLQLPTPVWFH
Assay [4] shares this target. The description is as above. The source holds these as a separate data set.
The target in assay [5] is human FcRn (human FCGRT & B2M heterodimer) (human) (UniProt P55899). Nature of the assay: BLI; Octet Red384, multicycle kinetics; FcRn amine-coupled to AR2G tips, IgG1 2.5-80 nM; association and dissociation at pH 6 (50 mM phosphate, 150 mM NaCl, 0.1% Tween 20); heterogeneous ligand model; KD observed.
Assay [6] shares this target. Described as above. The source holds these as a separate data set.

pKd: −log10 of the molar value. Where two headings read alike, the source gives them in different places.

Sequence of UniProt P55899 (P55899 24-297, chain 1 of 2): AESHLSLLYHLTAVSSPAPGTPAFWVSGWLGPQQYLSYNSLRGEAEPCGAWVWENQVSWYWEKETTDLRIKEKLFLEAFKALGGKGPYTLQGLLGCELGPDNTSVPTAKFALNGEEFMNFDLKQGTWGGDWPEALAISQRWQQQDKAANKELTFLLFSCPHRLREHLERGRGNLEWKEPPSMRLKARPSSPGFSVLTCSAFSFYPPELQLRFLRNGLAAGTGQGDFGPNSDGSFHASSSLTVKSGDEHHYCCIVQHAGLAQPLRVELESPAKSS
Sequence of UniProt P55899 (P61769 21-119, chain 2 of 2, further chain): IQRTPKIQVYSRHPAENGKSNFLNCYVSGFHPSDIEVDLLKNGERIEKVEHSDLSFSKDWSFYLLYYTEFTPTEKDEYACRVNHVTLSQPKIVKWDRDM

Take “covalent oligomer fraction of IgG1 (DSS cross-linked, preparative SEC) (antibody)”: the figures for the pKd in assay [1] and in assay [3] were 8.52 and 10.15, respectively. The fraction bound at neutral pH in assay [2] turned out to be 17.7%.
With “human IgG1 monoclonal antibody, reference sample”, the pKd in assay [4] is 9.25; in assay [5], 8.20; in assay [6], 8.24; in assay [3], 9.18. This substance also came in with a maximum response in assay [4] of 80 RU. Moreover, the fraction bound at neutral pH in assay [2] turned out to be 7.5%.

As a reminder, the pKd is −log10 of the Kd, conventionally taken in molar units.

The values are drawn from publication PMC5623700.
